In this assay the target is GLP-1 receptor on HEK293 cells carrying a cAMP responsive luciferase reporter gene (UniProt P43220 24-463, limits assumed). As to the kind of experiment: cell-based or functional assay.

B1: BLV1H12-GLP-1 fusion antibody (antibody, human IgG1)
heavy: not shown
light: QAVLNQPSSVSGSLGQRVSITCSGSSSNVGNGYVSWYQLIPGSAPRTLIYGDTSRASGVPDRFSGSRSGNTATLTISSLQAEDEADYFCASAEDSSSNAVFGSGTTLTVLGQPKSPPSVTLFPPSTEELNGNKATLVCLISDFYPGSVTVVWKADGSTITRNVETTRASKQSNSKYAASSYLSLTSSDWKSKGSYSCEVTHEGSTVTKTVKPSECS
B1: the “RLU (cAMP responsive luciferase reporter) at 1.26953 nM” value (from here on “RLU … at 1.26953 nM”) came out at 18600 RLU, the “RLU (cAMP responsive luciferase reporter) at 2.53906 nM” value (“RLU … at 2.53906 nM” below) stood at 24500 RLU, the “RLU (cAMP responsive luciferase reporter) at 5.07813 nM” value (shortened to “RLU … at 5.07813 nM”) was determined as 43200 RLU and the “RLU (cAMP responsive luciferase reporter) at 10.15625 nM” value (“RLU … at 10.15625 nM” for short) worked out at 66600 RLU. The “RLU (cAMP responsive luciferase reporter) at 20.3125 nM” value (“RLU … at 20.3125 nM” for short) worked out at 105000 RLU, the “RLU (cAMP responsive luciferase reporter) at 40.625 nM” value (“RLU … at 40.625 nM” below) turned out to be 144000 RLU, the “RLU (cAMP responsive luciferase reporter) at 81.25 nM” value (from here on “RLU … at 81.25 nM”) came out at 151000 RLU and the “RLU (cAMP responsive luciferase reporter) at 162.5 nM” value (from here on “RLU … at 162.5 nM”) was 167000 RLU. In addition, the “RLU (cAMP responsive luciferase reporter) at 325 nM” value (from here on “RLU … at 325 nM”) came out at 171000 RLU, the “RLU (cAMP responsive luciferase reporter) at 650 nM” value (“RLU … at 650 nM” below) stood at 160000 RLU and the “RLU (cAMP responsive luciferase reporter) at 1300 nM” value (shortened to “RLU … at 1300 nM”) amounted to 185000 RLU.

B2: BLV1H12-Ex-4 fusion antibody (antibody, human IgG1)
heavy: not shown
light: QAVLNQPSSVSGSLGQRVSITCSGSSSNVGNGYVSWYQLIPGSAPRTLIYGDTSRASGVPDRFSGSRSGNTATLTISSLQAEDEADYFCASAEDSSSNAVFGSGTTLTVLGQPKSPPSVTLFPPSTEELNGNKATLVCLISDFYPGSVTVVWKADGSTITRNVETTRASKQSNSKYAASSYLSLTSSDWKSKGSYSCEVTHEGSTVTKTVKPSECS
In the case of B2, the “RLU … at 1.26953 nM” value was 6120 RLU, the “RLU … at 2.53906 nM” value came out at 6360 RLU, the “RLU … at 5.07813 nM” value was determined as 8500 RLU and the “RLU … at 10.15625 nM” value is 10400 RLU. Moreover, the “RLU … at 20.3125 nM” value was 19300 RLU, the “RLU … at 40.625 nM” value amounted to 28000 RLU, the “RLU … at 81.25 nM” value came to 54800 RLU and the “RLU … at 162.5 nM” value worked out at 90700 RLU. For the same molecule, the “RLU … at 325 nM” value came out at 118000 RLU, the “RLU … at 650 nM” value stood at 135000 RLU and the “RLU … at 1300 nM” value amounted to 160000 RLU.

B3: BLV1H12-GLP-1 clip fusion antibody (antibody)
heavy: not shown
light: QAVLNQPSSVSGSLGQRVSITCSGSSSNVGNGYVSWYQLIPGSAPRTLIYGDTSRASGVPDRFSGSRSGNTATLTISSLQAEDEADYFCASAEDSSSNAVFGSGTTLTVLGQPKSPPSVTLFPPSTEELNGNKATLVCLISDFYPGSVTVVWKADGSTITRNVETTRASKQSNSKYAASSYLSLTSSDWKSKGSYSCEVTHEGSTVTKTVKPSECS
modifications: cleaved by Factor Xa at the IEGR site in front of GLP-1, releasing the N-terminus of GLP-1
For B3, the “RLU … at 1.26953 nM” value turned out to be 4740 RLU, the “RLU … at 2.53906 nM” value came to 5800 RLU, the “RLU … at 5.07813 nM” value came out at 4400 RLU and the “RLU … at 10.15625 nM” value is 5200 RLU. Moreover, the “RLU … at 20.3125 nM” value was 7780 RLU, the “RLU … at 40.625 nM” value was determined as 13600 RLU, the “RLU … at 81.25 nM” value came to 33800 RLU and the “RLU … at 162.5 nM” value is 65800 RLU. Moreover, the “RLU … at 325 nM” value turned out to be 101000 RLU, the “RLU … at 650 nM” value amounted to 141000 RLU and the “RLU … at 1300 nM” value was 169000 RLU.

For the origin of these results see patent publication US20140050720A1 (Scripps Research, published 2014).
